Targets include Inadl_4, Q8NI35; DLG2_3, Q15700; GRID2IP_2, A4D2P6; IL16_1, Q14005; GRIP2_5, Q9C0E4; NHERF2_2, Q15599; PARD3_3, Q8TEW0; DLG5_1, Q8TDM6; IL16_3, Q14005; MAST1, Q9Y2H9.
What all share (experiment): holdup assay
Design in all cases: key: below the threshold = too weak to quantify, mostly under pKd 3.1 to 4

The next assay concerns the target T1, GRIP1_2, Q9Y3R0.
T1 sequence (Q9Y3R0 145-248, limits assumed, looked up): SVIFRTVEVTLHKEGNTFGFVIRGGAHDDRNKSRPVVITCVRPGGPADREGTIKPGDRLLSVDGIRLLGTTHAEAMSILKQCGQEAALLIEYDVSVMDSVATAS

The next assay deals with T2, MPP7, Q5T2T1.
T2 sequence (Q5T2T1 134-230, limits assumed, looked up): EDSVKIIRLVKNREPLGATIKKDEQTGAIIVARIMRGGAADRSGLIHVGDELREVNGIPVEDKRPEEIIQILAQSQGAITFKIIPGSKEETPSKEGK

For a further assay, the target named is T3, PDZD7_3, Q9H5P4.
T3 sequence (Q9H5P4 857-944, limits assumed, looked up): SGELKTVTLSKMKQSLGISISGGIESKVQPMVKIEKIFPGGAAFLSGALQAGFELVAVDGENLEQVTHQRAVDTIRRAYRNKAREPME

The target of another assay is T4, DFNB31_1, Q9P202.
T4 sequence (Q9P202 135-233, limits assumed, looked up): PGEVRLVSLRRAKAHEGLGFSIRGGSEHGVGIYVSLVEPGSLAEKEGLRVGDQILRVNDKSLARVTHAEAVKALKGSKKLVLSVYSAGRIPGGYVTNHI

A further assay deals with T5, GRIP1_4, Q9Y3R0.
T5 sequence (Q9Y3R0 467-571, limits assumed, looked up): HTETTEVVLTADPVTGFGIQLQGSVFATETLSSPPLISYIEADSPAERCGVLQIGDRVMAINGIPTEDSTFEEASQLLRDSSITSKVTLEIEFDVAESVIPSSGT

A further assay concerns the target T6, MPP6, Q9NZW5.
T6 sequence (Q9NZW5 125-219, limits assumed, looked up): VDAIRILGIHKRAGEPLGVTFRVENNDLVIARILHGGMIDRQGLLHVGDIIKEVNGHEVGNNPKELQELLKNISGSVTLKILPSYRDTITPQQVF

In a further assay the target is T7, APBA1_2, Q02410.
T7 sequence (Q02410 742-832, limits assumed, looked up): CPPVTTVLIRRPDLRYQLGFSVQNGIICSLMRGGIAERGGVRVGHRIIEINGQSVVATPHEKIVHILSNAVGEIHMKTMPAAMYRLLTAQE

In a further assay the target is T8, GRIP1_3, Q9Y3R0.
T8 sequence (Q9Y3R0 247-346, limits assumed, looked up): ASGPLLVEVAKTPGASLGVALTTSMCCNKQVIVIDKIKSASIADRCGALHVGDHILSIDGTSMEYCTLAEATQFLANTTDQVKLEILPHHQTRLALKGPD

Another assay concerns the target T9, APBA1_1, Q02410.
T9 sequence (Q02410 651-752, limits assumed, looked up): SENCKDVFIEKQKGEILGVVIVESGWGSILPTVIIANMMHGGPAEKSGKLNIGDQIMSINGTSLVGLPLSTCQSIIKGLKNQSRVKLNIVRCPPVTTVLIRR

For another assay, the target named is T10, APBA2_2, Q99767.
T10 sequence (Q99767 654-744, limits assumed, looked up): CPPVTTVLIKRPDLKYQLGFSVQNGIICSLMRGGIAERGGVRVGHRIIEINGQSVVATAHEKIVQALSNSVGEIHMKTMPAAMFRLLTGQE

In the next assay the target is T11, HTRA4, P83105.
T11 sequence (P83105 378-476, limits assumed, looked up): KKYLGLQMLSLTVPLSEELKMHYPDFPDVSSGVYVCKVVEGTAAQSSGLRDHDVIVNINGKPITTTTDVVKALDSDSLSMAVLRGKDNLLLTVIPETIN

In another assay the target is T12, DLG3_3, Q92796.
T12 sequence (Q92796 374-475, limits assumed, looked up): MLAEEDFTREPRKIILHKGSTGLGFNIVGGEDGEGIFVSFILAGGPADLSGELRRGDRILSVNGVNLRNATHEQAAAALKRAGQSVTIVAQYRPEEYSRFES

The target of a further assay is T13, ARHGEF11, O15085.
T13 sequence (O15085 42-136, limits assumed, looked up): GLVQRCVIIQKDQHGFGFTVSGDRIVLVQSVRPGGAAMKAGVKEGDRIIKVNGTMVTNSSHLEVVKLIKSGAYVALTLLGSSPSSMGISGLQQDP

A further assay addresses T14, SNTG2, Q9NY99.
T14 sequence (Q9NY99 68-166, limits assumed, looked up): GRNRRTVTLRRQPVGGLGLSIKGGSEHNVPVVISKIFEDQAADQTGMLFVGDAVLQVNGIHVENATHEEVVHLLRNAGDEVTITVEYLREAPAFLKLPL

Setting [1] is: plain residues with an end cap or a label only (N-terminal biotin on a linker: ado-ado).
Setting [2] is: plain residues with an end cap or a label only (N-terminal biotin on a linker: ahx).

Chain of NHERF2_2, Q15599 (Q15599 142-238): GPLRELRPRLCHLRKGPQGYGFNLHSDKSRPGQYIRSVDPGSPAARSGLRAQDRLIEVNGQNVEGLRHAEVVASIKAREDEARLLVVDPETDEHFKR
Chain of PARD3_3, Q8TEW0 (Q8TEW0 582-685): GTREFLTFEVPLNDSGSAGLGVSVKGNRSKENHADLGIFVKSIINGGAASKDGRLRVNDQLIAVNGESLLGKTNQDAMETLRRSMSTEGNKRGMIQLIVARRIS
Chain of Inadl_4, Q8NI35 (Q8NI35 547-651): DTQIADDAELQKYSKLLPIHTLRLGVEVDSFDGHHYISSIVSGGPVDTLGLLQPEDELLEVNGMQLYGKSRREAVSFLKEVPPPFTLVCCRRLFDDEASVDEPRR
Chain of DLG5_1, Q8TDM6 (Q8TDM6 617-713): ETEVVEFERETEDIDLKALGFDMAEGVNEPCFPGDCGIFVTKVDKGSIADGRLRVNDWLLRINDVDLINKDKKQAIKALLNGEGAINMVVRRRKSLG
Chain of IL16_1, Q14005 (Q14005 210-306): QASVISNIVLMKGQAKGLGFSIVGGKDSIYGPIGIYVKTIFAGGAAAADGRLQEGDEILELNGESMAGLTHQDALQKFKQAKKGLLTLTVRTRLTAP
Chain of IL16_3, Q14005 (Q14005 1107-1207): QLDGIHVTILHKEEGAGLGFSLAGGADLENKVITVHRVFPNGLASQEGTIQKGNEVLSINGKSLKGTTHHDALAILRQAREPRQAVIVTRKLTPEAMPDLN
Chain of GRIP2_5, Q9C0E4 (Q9C0E4 544-642): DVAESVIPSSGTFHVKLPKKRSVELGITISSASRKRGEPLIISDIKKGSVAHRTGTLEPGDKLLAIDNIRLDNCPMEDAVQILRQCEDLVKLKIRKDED
Chain of MAST1, Q9Y2H9 (Q9Y2H9 962-1065): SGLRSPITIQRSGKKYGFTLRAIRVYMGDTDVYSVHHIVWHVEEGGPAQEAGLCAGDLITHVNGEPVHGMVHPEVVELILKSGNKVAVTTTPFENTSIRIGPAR
Chain of GRID2IP_2, A4D2P6 (A4D2P6 272-370): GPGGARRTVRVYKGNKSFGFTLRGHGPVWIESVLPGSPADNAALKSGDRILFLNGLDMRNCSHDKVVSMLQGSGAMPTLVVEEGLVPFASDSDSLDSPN

B1: HTR2A, P28223 (peptide)
chain: DGVNEKVSCV
Turning to B1, the negative logarithm of the Kd (pKd) entry with GRIP1_2, Q9Y3R0 (setting [1]) is “below the threshold”; with Inadl_4, Q8NI35 (setting [1]), “below the threshold”; with MPP7, Q5T2T1 (setting [1]) it was “below the threshold”; with PDZD7_3, Q9H5P4 (setting [1]) it was 4.72; with DFNB31_1, Q9P202 (setting [1]) it was “below the threshold”; with GRIP1_4, Q9Y3R0 (setting [1]), “below the threshold”. Besides, the pKd with DLG2_3, Q15700 (setting [1]) is 3.8; with GRID2IP_2, A4D2P6 (setting [1]) it was 4.54; in the assay with IL16_1, Q14005 (setting [1]), 4.72; with GRIP2_5, Q9C0E4 (setting [1]) it was “below the threshold”; with MPP6, Q9NZW5 (setting [1]), “below the threshold”; with NHERF2_2, Q15599 (setting [1]), “below the threshold”. Also, the pKd was 4 with APBA1_2, Q02410 (setting [1]); “below the threshold” in the assay with PARD3_3, Q8TEW0 (setting [1]); “below the threshold” with GRIP1_3, Q9Y3R0 (setting [1]); “below the threshold” with DLG5_1, Q8TDM6 (setting [1]); “below the threshold” in the assay with APBA1_1, Q02410 (setting [1]); “below the threshold” with APBA2_2, Q99767 (setting [1]). In addition, the pKd entry was “below the threshold” with IL16_3, Q14005 (setting [1]); 3.65 in the assay with MAST1, Q9Y2H9 (setting [1]); 3.71 with HTRA4, P83105 (setting [1]); “below the threshold” with DLG3_3, Q92796 (setting [1]); 4.18 with ARHGEF11, O15085 (setting [1]); 3.69 in the assay with SNTG2, Q9NY99 (setting [1]).

B2: KCNV1, Q6PIU1 (peptide)
chain: RSSGGDDFWF
On to B2, for which the pKd entry in the assay with GRIP1_2, Q9Y3R0 (setting [1]) was “below the threshold”; in the assay with Inadl_4, Q8NI35 (setting [1]), “below the threshold”; with MPP7, Q5T2T1 (setting [1]), 4.45; with PDZD7_3, Q9H5P4 (setting [1]), 3.92; with DFNB31_1, Q9P202 (setting [1]) it was “below the threshold”; in the assay with GRIP1_4, Q9Y3R0 (setting [1]), “below the threshold”. For the same molecule, the pKd in the assay with DLG2_3, Q15700 (setting [1]) was 3.6; with GRID2IP_2, A4D2P6 (setting [1]), “below the threshold”; with IL16_1, Q14005 (setting [1]) it was “below the threshold”; with GRIP2_5, Q9C0E4 (setting [1]), “below the threshold”; with MPP6, Q9NZW5 (setting [1]) it was “below the threshold”; with NHERF2_2, Q15599 (setting [1]), 4.69. For the same molecule, the negative-log Kd (pKd) result with APBA1_2, Q02410 (setting [1]) was “below the threshold”; with PARD3_3, Q8TEW0 (setting [1]) it was 4.97; with GRIP1_3, Q9Y3R0 (setting [1]), “below the threshold”; with DLG5_1, Q8TDM6 (setting [1]), “below the threshold”; with APBA1_1, Q02410 (setting [1]), “below the threshold”; with APBA2_2, Q99767 (setting [1]), “below the threshold”. The pKd result was “below the threshold” with IL16_3, Q14005 (setting [1]); 4.01 with MAST1, Q9Y2H9 (setting [1]); “below the threshold” with HTRA4, P83105 (setting [1]); “below the threshold” with DLG3_3, Q92796 (setting [1]); “below the threshold” with ARHGEF11, O15085 (setting [1]); “below the threshold” in the assay with SNTG2, Q9NY99 (setting [1]).

B3: CGN, Q9P2M7 (peptide)
chain: TESNLQTSSC
As for B3, the negative-log Kd (pKd) entry is “below the threshold” with GRIP1_2, Q9Y3R0 (setting [2]); “below the threshold” with Inadl_4, Q8NI35 (setting [2]); “below the threshold” with MPP7, Q5T2T1 (setting [2]); “below the threshold” in the assay with PDZD7_3, Q9H5P4 (setting [2]); “below the threshold” with DFNB31_1, Q9P202 (setting [2]); “below the threshold” with GRIP1_4, Q9Y3R0 (setting [2]). Also, the pKd entry is “below the threshold” with DLG2_3, Q15700 (setting [2]); 3.8 with GRID2IP_2, A4D2P6 (setting [2]); “below the threshold” with IL16_1, Q14005 (setting [2]); “below the threshold” with GRIP2_5, Q9C0E4 (setting [2]); “below the threshold” in the assay with MPP6, Q9NZW5 (setting [2]); “below the threshold” in the assay with NHERF2_2, Q15599 (setting [2]). The pKd result in the assay with APBA1_2, Q02410 (setting [2]) is given as “below the threshold”; in the assay with PARD3_3, Q8TEW0 (setting [2]) it was “below the threshold”; with GRIP1_3, Q9Y3R0 (setting [2]), “below the threshold”; with DLG5_1, Q8TDM6 (setting [2]) it was “below the threshold”; in the assay with APBA1_1, Q02410 (setting [2]) it was “below the threshold”; with APBA2_2, Q99767 (setting [2]), “below the threshold”. In addition, the pKd with IL16_3, Q14005 (setting [2]) is 3.53; with MAST1, Q9Y2H9 (setting [2]), “below the threshold”; with HTRA4, P83105 (setting [2]) it was “below the threshold”; in the assay with DLG3_3, Q92796 (setting [2]) it was “below the threshold”; with ARHGEF11, O15085 (setting [2]), “below the threshold”; in the assay with SNTG2, Q9NY99 (setting [2]) it was “below the threshold”.

B4: TIAM1, Q13009 (peptide)
chain: APSRKLNTEI
In the case of B4, the pKd entry with GRIP1_2, Q9Y3R0 (setting [2]) was “below the threshold”; with Inadl_4, Q8NI35 (setting [2]) it was “below the threshold”; with MPP7, Q5T2T1 (setting [2]), “below the threshold”; with PDZD7_3, Q9H5P4 (setting [2]) it was 4.08; with DFNB31_1, Q9P202 (setting [2]) it was 3.55; in the assay with GRIP1_4, Q9Y3R0 (setting [2]), “below the threshold”. Further, the negative-log Kd (pKd) with DLG2_3, Q15700 (setting [2]) is 3.66; in the assay with GRID2IP_2, A4D2P6 (setting [2]), “below the threshold”; in the assay with IL16_1, Q14005 (setting [2]) it was “below the threshold”; with GRIP2_5, Q9C0E4 (setting [2]), “below the threshold”; with MPP6, Q9NZW5 (setting [2]) it was “below the threshold”; with NHERF2_2, Q15599 (setting [2]), “below the threshold”. Besides, the negative-log Kd (pKd) result is given as “below the threshold” with APBA1_2, Q02410 (setting [2]); “below the threshold” in the assay with PARD3_3, Q8TEW0 (setting [2]); “below the threshold” in the assay with GRIP1_3, Q9Y3R0 (setting [2]); “below the threshold” with DLG5_1, Q8TDM6 (setting [2]); “below the threshold” in the assay with APBA1_1, Q02410 (setting [2]); “below the threshold” with APBA2_2, Q99767 (setting [2]). Further, the pKd result with IL16_3, Q14005 (setting [2]) is recorded as “below the threshold”; with MAST1, Q9Y2H9 (setting [2]), “below the threshold”; with HTRA4, P83105 (setting [2]) it was “below the threshold”; with DLG3_3, Q92796 (setting [2]), “below the threshold”; with ARHGEF11, O15085 (setting [2]), “below the threshold”; with SNTG2, Q9NY99 (setting [2]) it was “below the threshold”.

Usually pKd stands for the Kd on a negative log10 scale, so that one unit is a factor of ten.

Source of the values: article PMC9482650, “Quantitative fragmentomics allow affinity mapping of interactomes” (Nature Communications, 2022).
